Experiments:
[1] = system: ZC3H12D short isoform (hZC36), Alexa Fluor 488 labeled (Homo sapiens); assay: FCS; details: 1 nM protein, 10 nM RNA; EMSA: 100 mM HEPES pH 7.3, 200 mM KCl, 10 mM MgCl2, 10 mM DTT, glycerol, tRNA; FCS: protein diluted in 50 mM HEPES pH 7.4, 100 mM NaCl; temperature not given
[2] = target: T1, ZC3H12D short isoform (hZC36) (Homo sapiens, UniProt A2A288-4 1-321); assay: EMSA; tRNA; very rough estimate by authors; EMSA: 100 mM HEPES pH 7.3, 200 mM KCl, 10 mM MgCl2, 10 mM DTT, glycerol, tRNA; FCS: protein diluted in 50 mM HEPES pH 7.4, 100 mM NaCl; temperature not given; details: protein: recombinant; tags: C-terminal myc-FLAG (pCMV6-Entry)
T1 sequence: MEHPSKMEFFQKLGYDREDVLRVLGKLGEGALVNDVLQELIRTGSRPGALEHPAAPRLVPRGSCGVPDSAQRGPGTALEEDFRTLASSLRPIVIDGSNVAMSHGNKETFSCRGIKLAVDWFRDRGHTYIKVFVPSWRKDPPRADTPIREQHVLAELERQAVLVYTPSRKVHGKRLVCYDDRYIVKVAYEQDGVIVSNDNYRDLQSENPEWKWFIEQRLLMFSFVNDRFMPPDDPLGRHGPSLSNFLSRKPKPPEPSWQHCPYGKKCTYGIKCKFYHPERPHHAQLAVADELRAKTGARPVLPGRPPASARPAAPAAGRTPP

IL1b-mRNA full length
Kd [1]: 1 nM

bactin-mRNA
Kd [1]: 1 nM

B1: EMSA probe 5 (ssRNA)
RNA: UAUUUAUUUAUGUAUUUAUUGAUUGGUUGAUCUAUUUAAGUUGAUUCAAG
Kd [2]: ~31.6 nM

— article PMC8208975, “Extracellular mRNA transported to the nucleus exerts translation-independent function”
